Patent publication US20250326818A1 (UNIVERSIT T BASEL, published 2025)

Legend:
Assay in all cases: BLI (Octet), biotinylated CD123 ECD captured on streptavidin tips, hIL3 as analyte, level at 250 s normalised to loading
CD123 ECD S59F = biological target: T1, CD123 ECD S59F (human, UniProt P26951 19-305)
T1 construct: Recombinant ECD
T1 sequence: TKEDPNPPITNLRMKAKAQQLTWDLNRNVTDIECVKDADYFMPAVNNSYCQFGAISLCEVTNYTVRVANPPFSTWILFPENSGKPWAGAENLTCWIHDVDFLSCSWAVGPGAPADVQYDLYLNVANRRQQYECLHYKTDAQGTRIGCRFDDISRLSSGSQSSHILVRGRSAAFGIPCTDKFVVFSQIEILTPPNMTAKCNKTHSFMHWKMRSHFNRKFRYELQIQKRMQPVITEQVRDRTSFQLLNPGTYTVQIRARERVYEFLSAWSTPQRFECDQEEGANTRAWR
Experimental: (§1) Binding of hIL3 (SinoBiological, PN: 11858-H08H) (analyte) to CD123 ECD wt. and variants (ligands) was performed using Streptavidin capture biosensor (SA) (Sartorius, PN: 18-5019). CD123 ECD wt. and variants were biotinylated using Biotinylation kit Type B (Abeam, PN: ab201796) following manufacturer instructions. Biotinylated CD123 ECD wt. and variants (ligands) were captured on SA tips for 1000 s to achieve a nm shift of 1.5 to 2 nm. Analyte hIL3 was titrated at 7 concentrations from 500 to 7.8 nM. Association to analyte was monitored for 300 s and dissociation for 120 s. Buffer only well was used as reference. No regeneration was performed, and a new set of tips was used for each biotinylated captured ligand. Data were analyzed using the Octet Data Analysis software HT 12.0. Due to the fast on/off nature of the interaction data were analyzed using Steady state analysis. Qualitative representation in FIG. 11 binding level were taken at 250 s association for all concentrations.

CD123 ECD E51K = biological target: T2, CD123 ECD E51K (human, UniProt P26951 19-305)
T2 construct: Recombinant ECD
T2 sequence: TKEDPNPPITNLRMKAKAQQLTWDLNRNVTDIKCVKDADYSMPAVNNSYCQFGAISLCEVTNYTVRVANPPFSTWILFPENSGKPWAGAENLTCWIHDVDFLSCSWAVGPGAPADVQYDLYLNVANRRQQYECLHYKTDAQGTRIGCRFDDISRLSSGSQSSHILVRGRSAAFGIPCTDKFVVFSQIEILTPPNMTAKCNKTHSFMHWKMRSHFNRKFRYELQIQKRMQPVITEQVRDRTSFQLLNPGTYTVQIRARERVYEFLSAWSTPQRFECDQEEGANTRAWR
Experimental: as §1

CD123 ECD E51A = biological target: T3, CD123 ECD E51A (human, UniProt P26951 19-305)
T3 construct: Recombinant ECD
T3 sequence: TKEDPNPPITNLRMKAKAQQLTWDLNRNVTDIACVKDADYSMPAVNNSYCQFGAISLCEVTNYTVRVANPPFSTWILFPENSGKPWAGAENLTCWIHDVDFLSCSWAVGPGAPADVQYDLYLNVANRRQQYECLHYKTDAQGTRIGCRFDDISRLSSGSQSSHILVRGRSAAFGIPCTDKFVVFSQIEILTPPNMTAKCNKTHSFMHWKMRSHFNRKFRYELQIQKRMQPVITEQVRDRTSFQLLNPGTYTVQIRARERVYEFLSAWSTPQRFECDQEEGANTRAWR
Experimental: as §1

CD123 ECD wt = biological target: T4, CD123 ECD wt (human, UniProt P26951 19-305)
T4 construct: Recombinant extracellular domain; Biotinylated when captured for the hIL3 assay; also called CD123_WT; recombinant wildtype CD123
T4 sequence: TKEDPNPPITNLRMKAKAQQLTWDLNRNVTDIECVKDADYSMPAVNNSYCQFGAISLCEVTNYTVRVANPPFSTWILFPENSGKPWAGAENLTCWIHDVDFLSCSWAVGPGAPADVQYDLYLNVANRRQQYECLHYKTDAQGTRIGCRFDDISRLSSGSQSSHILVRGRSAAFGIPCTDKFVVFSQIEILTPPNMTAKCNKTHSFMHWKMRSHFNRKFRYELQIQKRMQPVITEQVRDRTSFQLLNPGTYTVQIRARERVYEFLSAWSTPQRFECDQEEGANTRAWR
Experimental: as §1

CD123 ECD R84Q = biological target: T5, CD123 ECD R84Q (human, UniProt P26951 19-305)
T5 construct: Recombinant ECD
T5 sequence: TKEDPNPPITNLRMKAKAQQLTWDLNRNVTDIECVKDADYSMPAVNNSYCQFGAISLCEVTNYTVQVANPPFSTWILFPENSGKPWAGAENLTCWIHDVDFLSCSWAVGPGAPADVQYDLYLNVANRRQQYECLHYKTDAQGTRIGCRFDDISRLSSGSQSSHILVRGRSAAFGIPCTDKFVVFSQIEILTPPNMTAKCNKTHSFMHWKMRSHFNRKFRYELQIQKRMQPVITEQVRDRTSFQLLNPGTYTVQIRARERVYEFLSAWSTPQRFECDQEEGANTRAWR
Experimental: as §1

CD123 ECD S59Y = biological target: T6, CD123 ECD S59Y (human, UniProt P26951 19-305)
T6 construct: Recombinant ECD
T6 sequence: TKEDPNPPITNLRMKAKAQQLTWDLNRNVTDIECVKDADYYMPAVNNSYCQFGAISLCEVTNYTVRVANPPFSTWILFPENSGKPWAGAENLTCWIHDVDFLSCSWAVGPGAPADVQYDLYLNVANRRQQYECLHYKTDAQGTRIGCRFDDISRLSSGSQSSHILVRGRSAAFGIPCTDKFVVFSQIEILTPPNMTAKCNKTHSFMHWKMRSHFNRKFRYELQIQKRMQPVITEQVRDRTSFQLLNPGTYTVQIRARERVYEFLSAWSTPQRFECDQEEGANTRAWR
Experimental: as §1

- binding result (CD123 ECD S59F): binds
- binding result (CD123 ECD E51K): binds
- binding result (CD123 ECD E51A): binds
- binding result (CD123 ECD wt): binds
- binding result (CD123 ECD R84Q): binds
- binding result (CD123 ECD S59Y): binds
B1: hIL3 (ligand, human, UniProt P08700 20-152, looked up)
chain: APMTQTTPLKTSWVNCSNMIDEIITHLKQPPLPLLDFNNLNGEDQDILMENNLRRPNLEAFNRAVKSLQNASAIESILKNLLPCLPLATAAPTRHPIHIKDGDWNEFRRKLTFYLKTLENAQAQQTTLSLAIF
notes: also called Interleukin-3
